Laboratory results published in patent US20190382481A1 (Janssen / Centocor, published 2019).
Substitutions are numbered along the chain they refer to.

B1: C33B48.CLF (antibody, human IgG1, lambda)
heavy: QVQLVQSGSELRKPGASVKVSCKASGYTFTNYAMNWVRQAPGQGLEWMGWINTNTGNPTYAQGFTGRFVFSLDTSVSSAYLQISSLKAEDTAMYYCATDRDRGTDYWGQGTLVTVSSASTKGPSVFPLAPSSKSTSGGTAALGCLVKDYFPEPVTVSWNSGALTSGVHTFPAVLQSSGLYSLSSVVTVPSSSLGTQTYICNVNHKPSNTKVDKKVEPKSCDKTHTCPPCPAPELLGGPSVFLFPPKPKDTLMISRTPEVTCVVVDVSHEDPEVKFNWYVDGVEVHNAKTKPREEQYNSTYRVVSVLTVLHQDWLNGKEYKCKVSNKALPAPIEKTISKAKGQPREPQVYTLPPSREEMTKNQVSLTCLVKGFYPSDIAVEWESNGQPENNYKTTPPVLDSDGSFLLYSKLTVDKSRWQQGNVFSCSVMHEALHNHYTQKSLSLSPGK
light: QSALTQPASVSGSPGQSITISCTGTSSDVGDYNYVSWYQQHPGKVPKLMIYDVSNRPSGVSNRFSGSMSGNTASLTISGLQAEDEADYYCSSYSSSSALEVFGGGTKLTVLGQPKAAPSVTLFPPSSEELQANKATLVCLISDFYPGAVTVAWKADSSPVKAGVETTTPSKQSNNKYAASSYLSLTPEQWKSHRSYSCQVTHEGSTVEKTVAPTECS
modifications: IgG1 low fucose Fc glycan
B2: C3CB97 (bispecific antibody, human IgG4 S228P, lambda, F234A L235A)
heavy 1: not shown
light 1: B1 light
heavy 2: QVQLQQSGPRLVRPSQTLSLTCAISGDSVFNNNAAWSWIRQSPSRGLEWLGRTYYRSKWLYDYAVSVKSRITVNPDTSRNQFTLQLNSVTPEDTALYYCARGYSSSFDYWGQGTLVTVSSASTKGPSVFPLAPCSRSTSESTAALGCLVKDYFPEPVTVSWNSGALTSGVHTFPAVLQSSGLYSLSSVVTVPSSSLGTKTYTCNVDHKPSNTKVDKRVESKYGPPCPPCPAPEAAGGPSVFLFPPKPKDTLMISRTPEVTCVVVDVSQEDPEVQFNWYVDGVEVHNAKTKPREEQFNSTYRVVSVLTVLHQDWLNGKEYKCKVSNKGLPSSIEKTISKAKGQPREPQVYTLPPSQEEMTKNQVSLTCLVKGFYPSDIAVEWESNGQPENNYKTTPPVLDSDGSFLLYSKLTVDKSRWQEGNVFSCSVMHEALHNHYTQKSLSLSLGK
light 2: QSALTQPASVSGSPGQSITISCTGTSSNIGTYKFVSWYQQHPDKAPKVLLYEVSKRPSGVSSRFSGSKSGNTASLTISGLQAEDQADYHCVSYAGSGTLLFGGGTKLTVLGQPKAAPSVTLFPPSSEELQANKATLVCLISDFYPGAVTVAWKADSSPVKAGVETTTPSKQSNNKYAASSYLSLTPEQWKSHRSYSCQVTHEGSTVEKTVAPTECS
B3: C3CB7 (bispecific antibody, human IgG4 S228P, lambda, F234A L235A)
heavy 1: not shown
light 1: B1 light
heavy 2: EVQLVESGGGLVQPGGSLRLSCAASGFTFNTYAMNWVRQAPGKGLEWVARIRSKYNNYATYYAASVKGRFTISRDDSKNSLYLQMNSLKTEDTAVYYCARHGNFGNSYVSWFAYWGQGTLVTVSSASTKGPSVFPLAPCSRSTSESTAALGCLVKDYFPEPVTVSWNSGALTSGVHTFPAVLQSSGLYSLSSVVTVPSSSLGTKTYTCNVDHKPSNTKVDKRVESKYGPPCPPCPAPEAAGGPSVFLFPPKPKDTLMISRTPEVTCVVVDVSQEDPEVQFNWYVDGVEVHNAKTKPREEQFNSTYRVVSVLTVLHQDWLNGKEYKCKVSNKGLPSSIEKTISKAKGQPREPQVYTLPPSQEEMTKNQVSLTCLVKGFYPSDIAVEWESNGQPENNYKTTPPVLDSDGSFLLYSKLTVDKSRWQEGNVFSCSVMHEALHNHYTQKSLSLSLGK
light 2: QTVVTQEPSLTVSPGGTVTLTCRSSTGAVTTSNYANWVQQKPGQAPRGLIGGTNKRAPGTPARFSGSLLGGKAALTLSGVQPEDEAEYYCALWYSNLWVFGGGTKLTVLGQPKAAPSVTLFPPSSEELQANKATLVCLISDFYPGAVTVAWKADSSPVKAGVETTTPSKQSNNKYAASSYLSLTPEQWKSHRSYSCQVTHEGSTVEKTVAPTECS
B4: C33B912.CLF (antibody, human IgG1, kappa, V domains shown)
VH: EVQLVESGGGLVQPGRSLRLSCAASGFTFDDYAMHWVRQAPGKGLEWVSGIGWSGGSIVYADSVKGRFKISRDNAKNSLYLQMNSLRAEDTALYYCAKDSPYGDFFDYWGQGTLVTVSS
VL: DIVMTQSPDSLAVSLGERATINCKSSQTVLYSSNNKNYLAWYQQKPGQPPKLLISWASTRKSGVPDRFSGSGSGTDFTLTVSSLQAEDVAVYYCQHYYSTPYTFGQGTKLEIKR
modifications: IgG1 low fucose Fc glycan
B5: C3CB12 (bispecific antibody, human IgG4 S228P, lambda, F234A L235A)
heavy 1: not shown
light 1: SYELTQPPSVSVSPGQTASITCSGNKLGAKFASWYQQKPGQSPVLVIYQDNKRPSGIPERFSGSNSGNTATLTISGTQAVDEADYYCQAWDSSTVVFGGGTKLTVLGQPKAAPSVTLFPPSSEELQANKATLVCLISDFYPGAVTVAWKADSSPVKAGVETTTPSKQSNNKYAASSYLSLTPEQWKSHRSYSCQVTHEGSTVEKTVAPTECS
heavy 2: B3 heavy 2
light 2: B3 light 2
B6: C3CB103 (bispecific antibody, human IgG4 S228P, lambda, F234A L235A)
heavy 1: not shown
light 1: B5 light 1 with N25D, A29D, F31Y, S33C, N51G, S66F, T69K, V80M, S92R, S93N
heavy 2: B2 heavy 2
light 2: B2 light 2
B7: C3CB88 (bispecific antibody, human IgG4 S228P, kappa, lambda, F234A L235A)
heavy 1: not shown
light 1: not shown
heavy 2: B3 heavy 2
light 2: B3 light 2
B8: C3CB102 (bispecific antibody, human IgG4 S228P, lambda, F234A L235A)
heavy 1: not shown
light 1: B5 light 1
heavy 2: B2 heavy 2
light 2: B2 light 2

Columns and labels:
Assay in all cases: cell-based or functional assay
human CD33 [1] = target: T1, human CD33 (human, UniProt P20138 18-364)
human CD33 [2] = target: T1, human CD33; remark: listed apart in the source
human CD33 [3] = target: T1, human CD33; remark: listed apart in the source
cyno CD33 = cyno CD33 (cynomolgus monkey)
human CD33 [4] = target: T1, human CD33; remark: listed apart in the source

T1 sequence (P20138 18-364 limits assumed): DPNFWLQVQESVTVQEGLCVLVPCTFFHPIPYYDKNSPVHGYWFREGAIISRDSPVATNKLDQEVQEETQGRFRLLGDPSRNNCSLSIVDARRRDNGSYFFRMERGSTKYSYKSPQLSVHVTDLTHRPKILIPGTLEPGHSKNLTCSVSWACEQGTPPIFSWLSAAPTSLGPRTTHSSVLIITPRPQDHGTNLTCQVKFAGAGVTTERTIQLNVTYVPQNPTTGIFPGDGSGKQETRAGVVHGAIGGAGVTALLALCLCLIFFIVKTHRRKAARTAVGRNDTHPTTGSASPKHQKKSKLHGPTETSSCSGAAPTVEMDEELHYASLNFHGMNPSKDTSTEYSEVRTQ
Chain of cyno CD33 (cynomolgus monkey) (chain, as listed by the source limits assumed): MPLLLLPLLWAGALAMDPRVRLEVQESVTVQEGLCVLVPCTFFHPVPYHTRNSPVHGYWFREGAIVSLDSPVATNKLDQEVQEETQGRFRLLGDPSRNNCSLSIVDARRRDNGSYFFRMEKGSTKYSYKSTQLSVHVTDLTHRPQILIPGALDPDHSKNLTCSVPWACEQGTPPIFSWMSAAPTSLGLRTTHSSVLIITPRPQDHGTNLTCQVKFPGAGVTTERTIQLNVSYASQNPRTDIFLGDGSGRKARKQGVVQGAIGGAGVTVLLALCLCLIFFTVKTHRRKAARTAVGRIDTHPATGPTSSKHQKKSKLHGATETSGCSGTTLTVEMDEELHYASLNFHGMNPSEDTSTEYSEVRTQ

| Binder | Primary AML Cell Killing EC50 (nM), ex vivo AML patient whole blood (human CD33 [2]) [nM] | Cytotoxicity EC50 (nM), T-cell mediated cytotoxicity of MOLM-13 (human CD33 [3]) [nM] | also measured |
| --- | --- | --- | --- |
| B1 | – | – | EC50 ADCC (nM), MOLM-13 target cells, human NK effector cells (human CD33 [1]): 0.023 nM; EC50 ADCC (nM), MV4-11 target cells, human NK effector cells (human CD33 [1]): 0.113 nM |
| B2 | ~0.232 | – | – |
| B3 | 0.332 | 0.0213 | – |
| B4 | – | – | EC50 ADCC (nM), MOLM-13 target cells, human NK effector cells (human CD33 [1]): 0.292 nM; EC50 ADCC (nM), MV4-11 target cells, human NK effector cells (human CD33 [1]): 2.01 nM |
| B5 | 2.63 | 0.268 | – |
| B6 | 4.19 | – | – |
| B7 | 0.672 | 0.11 | CD33^+ CD14^+ Killing EC50 (nM), ex vivo cynomolgus whole blood (cyno CD33): 0.89 nM; T cell activation EC50 (nM), ex vivo cynomolgus whole blood (cyno CD33): 0.02 nM; CD33^+ CD14^+ Killing EC50 (nM), ex vivo human whole blood (human CD33 [4]): 0.506 nM; MOLM13 Killing EC50 (nM), ex vivo human whole blood (human CD33 [4]): 0.671 nM |
| B8 | 4.97 | – | – |
